Assay results from publication PMC7859441.
Starred links: 1 amine or outer side, 2 acyl side, 3 side chain; linkers in the order of their positions; H or OH if unused. Non-standard residues stand in square brackets, D forms with d. No end group written: not given here. βAsp = O=C(O)[C@H](CC(=O)[*:2])N[*:1]

Experiments:
[1] = molecular target: zebrafish Pcmtl (protein L-isoaspartyl methyltransferase paralog) (zebrafish)
[2] = molecular target: zebrafish Pcmt (protein L-isoaspartyl methyltransferase) (zebrafish) (UniProt Q92047)
Sequence of UniProt Q92047 (Q92047 whole entry): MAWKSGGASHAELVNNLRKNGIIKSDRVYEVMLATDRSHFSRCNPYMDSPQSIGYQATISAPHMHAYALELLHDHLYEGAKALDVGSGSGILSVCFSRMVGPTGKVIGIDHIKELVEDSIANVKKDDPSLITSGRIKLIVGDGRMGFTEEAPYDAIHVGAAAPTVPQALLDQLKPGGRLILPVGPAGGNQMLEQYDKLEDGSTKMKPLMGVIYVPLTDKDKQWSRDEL

- KM for the methyl acceptor peptide substrate, isoaspartyl methyltransferase activity (methanol vapor diffusion assay, 30°C, 0.2 M Bis-Tris pH 6.0, 14.5 μM SAM, 0.2–60 μM peptide) [1]: 3.6 μM
- KM for the methyl acceptor peptide substrate, isoaspartyl methyltransferase activity (methanol vapor diffusion assay, 30°C, 0.2 M Bis-Tris pH 6.0, 14.5 μM SAM, 0.2–60 μM peptide) [2]: 4.2 μM
B1: isoaspartyl substrate peptide KASAisoDLAKY (peptide)
peptide: KASA[βAsp]LAKY
